Test results from article PMC7027792, “Phenylalanine meta‐Hydroxylase: A Single Residue Mediates Mechanistic Control of Aromatic Amino Acid Hydroxylation” (Chembiochem, 2019).
Residue numbers refer to the chain shown, from its start. Names may count otherwise.

Key:
[1] = molecular target: T1, Phe3H (phenylalanine 3-hydroxylase) (Streptomyces coeruleorubidus, UniProt F5BFC8); experiment: steady-state inhibition kinetics of hydroxylation; format: biochemical
T1 construct: gene pacX; purified Phe3H
Description: steady-state inhibition kinetics of hydroxylation on […]

purified protein [2] = substrate: NC(Cc1ccc(F)cc1)C(=O)O; experiment: purified protein; format: biochemical, Streptomyces coeruleorubidus; details: fixed 6MPH4 cofactor, racemic substrate, pH 8, 28 °C
purified protein [3] = substrate: NC(Cc1ccccc1F)C(=O)O; experiment: purified protein; format: biochemical, Streptomyces coeruleorubidus; details: fixed 6MPH4 cofactor, racemic substrate, pH 8, 28 °C
purified protein [4] = substrate: N[C@@H](Cc1ccccc1)C(=O)O; experiment: purified protein; format: biochemical, Streptomyces coeruleorubidus
purified protein [5] = substrate: CC1Nc2nc(N)[nH]c(=O)c2NC1C; experiment: purified protein; format: biochemical, Streptomyces coeruleorubidus; details: pterin varied, fixed L-Phe, pH 8, 28 °C, varied: cofactor
[6] = fixed 6MPH4 cofactor, labelled compound, pH 8, 28 °C
[7] = fixed 6MPH4 cofactor, pH 8, 28 °C
[8] = pterin cofactor (6MPH4 for wild type), labelled compound
[9] = pterin cofactor (6MPH4 for wild type), optimised assay conditions

## NC(Cc1cccc(F)c1)C(=O)O (racemic) [3F‐Phe]
[1]
  Ki: 800 µM

B1: Phe3H (phenylalanine 3-hydroxylase) (Streptomyces coeruleorubidus) (protein)
chain: MQGPHAQMTDAAYEIRRSEIAALSTDLAPEDPIPVVEYTEWEHEVWRTVCVDLTARHRTDAAAEYLESAEQLAVPLDHVPQLRDVSGRLGSISGFTFQSAPALVPLREFCGGLANSVFHSTQYLRHPRSPFYTEDPDLLHDLVGHGNVLASDRFARLYRLAGNAAARVHSTEALQFIGKVFWFTLECGVVRERGERKAYGATLVSSYGELDHFRSADFRPLDIKSLADVEYDISTYQPILFEADSMDEVEDTVGSFWDTCDDDSIAALLGGTSRSVTPH
notes: purified Phe3H
Purified protein [2]
  Km: 230 ± 60 µM
  kcat: 0.233 ± 0.00833 s⁻¹
  kcat/Km: 1050 ± 107 M⁻¹ s⁻¹
Purified protein [3]
  Km: 1900 ± 100 µM
  kcat: 0.167 ± 0.00333 s⁻¹
  kcat/Km: 88.3 ± 2 M⁻¹ s⁻¹
Purified protein [4]; [6]
  Km: 540 ± 70 µM
  kcat: 0.567 ± 0.0167 s⁻¹
  kcat/Km: 1050 ± 48.3 M⁻¹ s⁻¹
Purified protein [4]; [7]
  Km: 400 ± 60 µM
  kcat: 0.633 ± 0.0333 s⁻¹
  kcat/Km: 1580 ± 118 M⁻¹ s⁻¹
Purified protein [5]
  Km: 98 ± 10 µM
  kcat: 1.3 ± 0.05 s⁻¹
  kcat/Km: 13300 ± 650 M⁻¹ s⁻¹

B2: Phe3H (phenylalanine 3-hydroxylase) (Streptomyces coeruleorubidus; C187A) (protein)
chain: B1 chain with C187A
notes: purified Phe3H
Purified protein [4]; [8]
  Km: 130 ± 30 µM
  kcat: 0.217 ± 0.00667 s⁻¹
Purified protein [4]; [9]
  Km: 100 ± 10 µM
  kcat: 0.283 ± 0.005 s⁻¹

B3: Phe3H (phenylalanine 3-hydroxylase) (Streptomyces coeruleorubidus; T202S) (protein)
chain: B1 chain with T202S
notes: purified Phe3H
Purified protein [4]; [8]
  Km: 400 ± 300 µM
  kcat: 0.217 ± 0.0667 s⁻¹
Purified protein [4]; [9]
  Km: 500 ± 200 µM
  kcat: 0.433 ± 0.0833 s⁻¹
